The text below walks through data of article PMC4252830 (Insect biochemistry and molecular biology, 2014).

Series [1] has as its target T1, AgEH (epoxide hydrolase from Anopheles gambiae) (Anopheles gambiae, UniProt Q7PZL6).
T1 sequence (Q7PZL6 1-340): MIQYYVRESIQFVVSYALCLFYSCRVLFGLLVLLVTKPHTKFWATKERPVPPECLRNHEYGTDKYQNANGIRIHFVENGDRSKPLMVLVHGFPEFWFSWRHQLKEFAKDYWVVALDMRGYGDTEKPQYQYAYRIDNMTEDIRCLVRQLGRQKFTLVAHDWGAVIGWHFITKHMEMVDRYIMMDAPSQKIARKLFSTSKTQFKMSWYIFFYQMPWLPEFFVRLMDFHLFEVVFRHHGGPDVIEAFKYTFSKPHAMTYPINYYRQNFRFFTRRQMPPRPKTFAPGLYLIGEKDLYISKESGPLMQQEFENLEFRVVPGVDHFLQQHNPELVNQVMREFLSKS
Kind of series: % activity remaining on t-DPPO, recombinant AgEH in Sf-9 microsomes. To be noted: read-out: t-DPPO / 500nM. Type of series: cell-based.

The target of series [2] is T1, AgEH (epoxide hydrolase from Anopheles gambiae). Kind of series: inhibition of […],15-EET hydrolysis by recombinant AgEH in Sf-9 microsomes. Type of series: biochemical.
Substrate in series [3]: COC(=O)/C=C(\C)CC/C=C(\C)CC[C@H]1OC1(C)C
The class given is biochemical, Anopheles gambiae.

Substrate in series [4]: c1ccc(C[C@@H]2O[C@H]2c2ccccc2)cc1
The class given is biochemical, Anopheles gambiae.

Substrate in series [5]: CCCCC/C=C\CC1OC1CCCCCCCC(=O)O
The experiment in a line: Michaelis-Menten kinetics, LC-MS/MS, recombinant AgEH in Sf-9 microsomes. Type of series: biochemical, Anopheles gambiae.

Substrate in series [6]: CCCCCC1OC1C/C=C\C/C=C\C/C=C\CCCC(=O)O
The description is as above. The class given is biochemical, Anopheles gambiae.

On to `O=C(Nc1ccc(OC(F)(F)F)cc1)N[C@H]1CC[C@H](Oc2ccc(C(=O)O)cc2)CC1` [compound 2, trans-4-{4-[3-(4-trifluoromethoxy-phenyl)-ureido]-cyclohexyloxy}-benzoic acid], for which the activity at 0.5 µM in series [1] is 12.5%.
The term IC50 denotes the concentration that inhibits the measured activity by half. Take `O=C(O)CCCCCCCCCCCNC(=O)NC12CC3CC(CC(C3)C1)C2` [compound 1, 12-(3-adamantan-1-yl-ureido) dodecanoic acid]: the 50% inhibitory concentration (IC50) in series [2] was around 60 nM.

B1: AgEH (epoxide hydrolase from Anopheles gambiae) (Anopheles gambiae) (protein)
chain: T1 sequence (Q7PZL6 1-340)
In general, Km refers to the substrate concentration at which the rate is half of its maximum. In general, Vmax refers to the rate approached at saturating substrate. As to B1, the Km in series [3] is 9.8 ± 2.0 µM; in series [4] it was 30.5 ± 5.0 µM; in series [5], 7.0 ± 0.6 µM; in series [6] it was 3.0 ± 0.3 µM. For the same molecule, the maximal velocity (Vmax) was found to be 1.3 µmol/min/mg in series [3], 1.2 µmol/min/mg in series [4], 1.5 µmol/min/mg in series [5] and 1.4 µmol/min/mg in series [6]. The Vmax/Km in series [3] stood at 130000 µL/min/mg; in series [4], 41000 µL/min/mg; in series [5], 210000 µL/min/mg; in series [6], 460000 µL/min/mg.
